Data reported in US20260008815A1, “CYCLIC PEPTIDE OR SALT THEREOF, AND USES THEREOF” (FUJIFILM Corporation, priority 2023, published 2026).
Bridge positions count the residues as written; N and C are the ends. Ends that are not written are not given here. COCH2 = acetyl group that carries the bridge

B1: cyclic peptide SEQ ID NO: 336 (peptide)
peptide: YCKENYLDPEQYQYFIYFK(COCH2)Y
modifications: thioether 2-19; not fully specified; printed as Y-(C)-KENYLDPEQYQYFIYF-(K(acetyl))-Y
B2: cyclic peptide SEQ ID NO: 335 (peptide)
peptide: KCEENYLDPEQYQYFIYFK(COCH2)Y
modifications: thioether 2-19; not fully specified; printed as K-(C)-EENYLDPEQYQYFIYF-(K(acetyl))-Y

Each binder was assayed against T1, Recombinant Human FGFR2 alpha (IIIc) Fc Chimera Protein, CF (R&D systems, 712-FR-050) (human, UniProt P21802 22-377) (assay: ELISA on plate-bound FGFR2-Fc).
T1 construct: bought; not shown: Fc part of the chimera
T1 sequence (P21802 22-377, change not shown): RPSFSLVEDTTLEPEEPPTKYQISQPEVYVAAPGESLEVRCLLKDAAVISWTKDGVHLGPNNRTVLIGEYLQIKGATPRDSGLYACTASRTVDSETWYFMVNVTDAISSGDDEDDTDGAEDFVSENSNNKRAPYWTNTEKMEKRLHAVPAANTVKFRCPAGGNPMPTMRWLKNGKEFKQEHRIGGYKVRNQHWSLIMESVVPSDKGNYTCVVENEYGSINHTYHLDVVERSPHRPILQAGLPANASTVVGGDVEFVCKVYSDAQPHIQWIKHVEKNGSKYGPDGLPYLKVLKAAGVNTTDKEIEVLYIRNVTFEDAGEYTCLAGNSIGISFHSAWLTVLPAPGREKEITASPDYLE
How it was run: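 Peptide binding scored by category from dose-response of background-corrected luminescence (FGFR-coated minus uncoated wells). Detection via anti-Myc antibody (2 h, room temperature) after 3 h peptide incubation on wells coated with 5 ng FGFR2 alpha (IIIc)-Fc.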

Binder | ELISA luminescence signal at 10 nmol/L peptide, relative to SEQ ID NO: 47 (=1) [ratio]
YCEENYLDPEQYQYFIIFK(COCH2)Y (thioether 2-19 (inferred)) [cyclic peptide SEQ ID NO: 294] | 0.5 to 0.7
YCEENYLDPEQYQYFIVFK(COCH2)Y (thioether 2-19 (inferred)) [cyclic peptide SEQ ID NO: 295] | ≥ 0.7
YCEENYLDPEQYQYFIYFK(COCH2)L (thioether 2-19 (inferred)) [cyclic peptide SEQ ID NO: 309] | ≥ 0.7
YCEENYLDPEQYQYFIYFK(COCH2)S (thioether 2-19 (inferred)) [cyclic peptide SEQ ID NO: 316] | ≥ 0.7
YCEENYLAPEQYQYFIYFK(COCH2)Y (thioether 2-19 (inferred)) [cyclic peptide SEQ ID NO: 328] | ≥ 0.7
YCEENYLDPEQYQYFIYWK(COCH2)Y (thioether 2-19 (inferred)) [cyclic peptide SEQ ID NO: 307] | ≥ 0.7
YCEENYLDPEQYQYFIYYK(COCH2)Y (thioether 2-19 (inferred)) [cyclic peptide SEQ ID NO: 306] | ≥ 0.7
YCEENYLDPEQYQYFIHFK(COCH2)Y (thioether 2-19 (inferred)) [cyclic peptide SEQ ID NO: 305] | ≥ 0.7
YCEENYLDPEQYQYFIQFK(COCH2)Y (thioether 2-19 (inferred)) [cyclic peptide SEQ ID NO: 299] | ≥ 0.7
B1 | ≥ 0.7
YCEEAYLDPEQYQYFIYFK(COCH2)Y (thioether 2-19 (inferred)) [cyclic peptide SEQ ID NO: 325] | 0.1 to 0.5
YCEENYLDAEQYQYFIYFK(COCH2)Y (thioether 2-19 (inferred)) [cyclic peptide SEQ ID NO: 329] | ≥ 0.7
YCEENYLDPEQYQYFAYFK(COCH2)Y (thioether 2-19) [cyclic peptide SEQ ID NO: 332] | ≥ 0.7
YCEENYLDPEQYQYFIFFK(COCH2)Y (thioether 2-19 (inferred)) [cyclic peptide SEQ ID NO: 296] | ≥ 0.7
YCEENYLDPEQYQYFIYFK(COCH2)I (thioether 2-19 (inferred)) [cyclic peptide SEQ ID NO: 310] | ≥ 0.7
YCEENYLDPEQYAYFIYFK(COCH2)Y (thioether 2-19) [cyclic peptide SEQ ID NO: 331] | ≥ 0.7
YCEENYLDPEQYQYFIYFK(COCH2)R (thioether 2-19 (inferred)) [cyclic peptide SEQ ID NO: 320] | ≥ 0.7
YCEENYLDPEQYQYFIYFK(COCH2)T (thioether 2-19 (inferred)) [cyclic peptide SEQ ID NO: 317] | ≥ 0.7
YCEENYLDPEQYQYFITFK(COCH2)Y (thioether 2-19 (inferred)) [cyclic peptide SEQ ID NO: 301] | ≥ 0.7
YCEENYLDPEQYQYFIDFK(COCH2)Y (thioether 2-19 (inferred)) [cyclic peptide SEQ ID NO: 302] | ≥ 0.7
YCEENYLDPEQYQYFIAFK(COCH2)Y (thioether 2-19) [cyclic peptide SEQ ID NO: 333] | ≥ 0.7
YCEENYLDPEQYQYFIYFK(COCH2)F (thioether 2-19 (inferred)) [cyclic peptide SEQ ID NO: 312] | ≥ 0.7

Binder | ELISA luminescence signal at 10 nmol/L peptide, relative to SEQ ID NO: 47 (=1) [ratio]
YCEENYLDPEQYQYFIYFK(COCH2)V (thioether 2-19 (inferred)) [cyclic peptide SEQ ID NO: 311] | ≥ 0.7
YCEENYLDPEQYQYFIYFK(COCH2)G (thioether 2-19 (inferred)) [cyclic peptide SEQ ID NO: 308] | ≥ 0.7
YCEENYLDPEQYQYFIWFK(COCH2)Y (thioether 2-19 (inferred)) [cyclic peptide SEQ ID NO: 297] | ≥ 0.7
YCEENYLDPEQYQYFIYFK(COCH2)A (thioether 2-19) [cyclic peptide SEQ ID NO: 334] | ≥ 0.7
YCEENYLDPEQYQYFIEFK(COCH2)Y (thioether 2-19 (inferred)) [cyclic peptide SEQ ID NO: 303] | ≥ 0.7
B2 | ≥ 0.7
YCEENYLDPEQYQYFINFK(COCH2)Y (thioether 2-19 (inferred)) [cyclic peptide SEQ ID NO: 298] | ≥ 0.7
ACEENYLDPEQYQYFIYFK(COCH2)Y (thioether 2-19 (inferred)) [cyclic peptide SEQ ID NO: 322] | ≥ 0.7
YCEENYLDPEQYQYFIYFK(COCH2)Q (thioether 2-19 (inferred)) [cyclic peptide SEQ ID NO: 315] | ≥ 0.7
YCEANYLDPEQYQYFIYFK(COCH2)Y (thioether 2-19 (inferred)) [cyclic peptide SEQ ID NO: 324] | ≥ 0.7
YCEENYLDPEQYQYFIYFK(COCH2)D (thioether 2-19 (inferred)) [cyclic peptide SEQ ID NO: 318] | ≥ 0.7
YCEENYLDPAQYQYFIYFK(COCH2)Y (thioether 2-19 (inferred)) [cyclic peptide SEQ ID NO: 330] | ≥ 0.7
YCEENYLDPEQYQYFIRFK(COCH2)Y (thioether 2-19 (inferred)) [cyclic peptide SEQ ID NO: 304] | ≥ 0.7
YCAENYLDPEQYQYFIYFK(COCH2)Y (thioether 2-19 (inferred)) [cyclic peptide SEQ ID NO: 323] | ≥ 0.7
YCEENYLDPEQYQYFIYFK(COCH2)H (thioether 2-19 (inferred)) [cyclic peptide SEQ ID NO: 321] | ≥ 0.7
YCEENYLDPEQYQYFISFK(COCH2)Y (thioether 2-19 (inferred)) [cyclic peptide SEQ ID NO: 300] | ≥ 0.7
YCEENYLDPEQYQYFIYFK(COCH2)E (thioether 2-19 (inferred)) [cyclic peptide SEQ ID NO: 319] | ≥ 0.7
YCEENYADPEQYQYFIYFK(COCH2)Y (thioether 2-19 (inferred)) [cyclic peptide SEQ ID NO: 327] | 0.1 to 0.5
YCEENALDPEQYQYFIYFK(COCH2)Y (thioether 2-19 (inferred)) [cyclic peptide SEQ ID NO: 326] | 0.1 to 0.5
YCEENYLDPEQYQYFIYFK(COCH2)W (thioether 2-19 (inferred)) [cyclic peptide SEQ ID NO: 313] | ≥ 0.7
YCEENYLDPEQYQYFIYFK(COCH2)N (thioether 2-19 (inferred)) [cyclic peptide SEQ ID NO: 314] | ≥ 0.7
